{"source": "paper doi:10.1101/2025.10.11.681810", "key": {"[1]": {"molecular_target": "recombinant bank vole (BV) PrP(90–231), I109 natural polymorph (bank vole) (UniProt Q8VHV5)", "experiment": "SEC"}, "[2]": {"molecular_target": "recombinant bank vole (BV) PrP(90–231), I109 natural polymorph (bank vole) (UniProt Q8VHV5)", "experiment": "NMR diffusion"}}, "data": [{"substance": "recombinant bank vole (BV) PrP(90–231), I109 natural polymorph (from UniProt Q8VHV5 90-231) (domain or fragment)", "values": [{"measurement": "stoichiometry N", "setting": "[1]", "value": 12}, {"measurement": "stoichiometry N", "setting": "[2]", "value": 16}]}]}
